Experimental data taken from the Immune Epitope Database (IEDB).
pIC50, pKd: −log10 of the molar value.

How the values were obtained:
HLA-A*30:01 = assay: IEDB peptide-MHC binding, purified MHC/competitive/radioactivity; filed as Kd, often an IC50 or EC50 that approximates it; ≥ and ≤ were set here for values at or beyond the usual limits of such assays
HLA-A*30:02 = assay: as above
HLA-B*15:01 = assay: as above
HLA-A*01:01 = assay: as above
HLA-A*02:01 = assay: IEDB peptide-MHC binding, purified MHC/competitive/fluorescence; ≥ and ≤ were set here for values at or beyond the usual limits of such assays
HLA-B*08:01 = assay: IEDB peptide-MHC binding, purified MHC/competitive/radioactivity; filed as Kd, often an IC50 or EC50 that approximates it; ≥ and ≤ were set here for values at or beyond the usual limits of such assays
HLA-A*03:01 = assay: as above; details: source organism: Dengue virus 4 Philippines/H241/1956
HLA-A*11:01 = assay: as above; details: source organism: Dengue virus 4 Philippines/H241/1956
HLA-B*44:03 = assay: as above
HLA-B*44:02 = assay: as above
HLA-A*24:02 [1] = assay: IEDB peptide-MHC binding, purified MHC/competitive/fluorescence; ≥ and ≤ were set here for values at or beyond the usual limits of such assays
HLA-B*07:02 = assay: IEDB peptide-MHC binding, purified MHC/competitive/radioactivity; filed as Kd, often an IC50 or EC50 that approximates it; ≥ and ≤ were set here for values at or beyond the usual limits of such assays
HLA-A*02:06 = assay: as above; details: source organism: Dengue virus 2 Jamaica/1409/1983
HLA-A*24:02 [2] = assay: as above; details: source organism: Dengue virus 2 Jamaica/1409/1983
[3] = source organism: Dengue virus 1 Brazil/97-11/1997
[4] = source organism: Vaccinia virus WR
[5] = source organism: Dengue virus 4 Philippines/H241/1956
[6] = source organism: Sudan ebolavirus
[7] = source organism: Zaire ebolavirus
[8] = source organism: Dengue virus 3 Martinique/1243/1999
[9] = source organism: Vaccinia virus Copenhagen
[10] = source organism: Dengue virus 4 Dominica/814669/1981

LSIVSLFPLC
pKd (HLA-A*30:01; [3]): 6.10

LSKSEFNTY
pKd (HLA-A*30:02; [3]): 7.95 | pKd (HLA-B*15:01; [3]): 8.10 | pKd (HLA-A*01:01; [3]): 5.56

MLIGIEILN
pIC50 (HLA-A*02:01; [4]): 6.26

MLKLQKCVM
pKd (HLA-B*08:01; [4]): 8.03

MSLRSTIIK
pKd (HLA-A*30:01; [4]): 7.43

MTLMKGASK
pKd (HLA-A*30:01; [5]): 5.82 | pKd (HLA-A*03:01): 7.74 | pKd (HLA-A*11:01): 6.84

NEHKSTWHY
pKd (HLA-B*44:03; [3]): 6.76 | pKd (HLA-B*44:02; [3]): 7.08

NEMVLLTMK
pKd (HLA-B*44:02; [3]): 6.06

NEVHTWTEQ
pKd (HLA-B*44:03; [3]): 5.18

NITDKINQI
pIC50 (HLA-A*02:01; [6]): 4.36 | pIC50 (HLA-A*24:02 [1]; [6]): 5.22

PLGVIHNST
pIC50 (HLA-A*02:01; [7]): ≤ 3.92

QAERTGEPDY
pKd (HLA-A*30:01; [5]): 5.21

QHNAAGIAW
pIC50 (HLA-A*24:02 [1]; [6]): 4.67

QKEGVFHTMW
pKd (HLA-B*44:03; [8]): 6.39 | pKd (HLA-B*44:02; [8]): 6.74

RFEVKKRDG
pIC50 (HLA-A*02:01; [7]): ≤ 3.25 | pIC50 (HLA-A*24:02 [1]; [7]): ≤ 4.09

RKKARSTPF
pKd (HLA-B*08:01; source organism: Dengue virus 2 Jamaica/1409/1983): 6.38

RLKMDKLEL
pKd (HLA-B*08:01; [8]): 6.25

RNIARHLAL
pKd (HLA-B*08:01; [4]): 8.49

RPMFAVGLL
pKd (HLA-B*07:02; [3]): 8.30

RPQPMEHKY
pKd (HLA-A*30:02; [3]): 6.87

RPTPTGTVMD
pKd (HLA-B*07:02; [8]): 7.38

RRLTSREVLL
pKd (HLA-B*08:01; [3]): 5.26

RSMPGTRRVM
pKd (HLA-B*07:02; [8]): 7.04

RSQSSTIIV
pKd (HLA-A*30:01; [4]): 6.25

RTICTLPYL
pKd (HLA-A*30:01; [4]): 9.13

RTPQDNQLIY
pKd (HLA-A*30:02; [5]): 6.70 | pKd (HLA-A*01:01; [5]): 6.04

RYRMHPMSK
pKd (HLA-A*30:01; [4]): 10.17

SARGLCAHI
pKd (HLA-B*15:01; [4]): 5.91

SFEEMYRHI
pIC50 (HLA-A*24:02 [1]; [7]): 5.21

SFKKNGAIK
pKd (HLA-A*30:01; [3]): 6.45

SFRRFVNKL
pKd (HLA-B*08:01; [9]): 5.86

SGTETKITF
pIC50 (HLA-A*24:02 [1]; [9]): 4.95

SIILEFFLI
pKd (HLA-A*02:06): 8.80 | pKd (HLA-A*24:02 [2]): 5.90

SLIYLCTFM
pKd (HLA-B*15:01; [4]): 8.35

SLKIMIQSM
pKd (HLA-B*08:01; [4]): 8.61

SMKYLMLLF
pKd (HLA-B*15:01; [4]): 8.42

SPMPRHHSI
pKd (HLA-B*08:01; [4]): 5.95

SRRYRCSFA
pKd (HLA-B*08:01; [4]): 7.28

SSPGPTTEA
pIC50 (HLA-A*02:01; [6]): 4.84

SSQVKCCHY
pKd (HLA-B*15:01; [4]): 6.46

SYGEYQSYS
pIC50 (HLA-A*24:02 [1]; [7]): 4.28

TEQMAPHHKI
pKd (HLA-B*44:02; [5]): 7.38

TLGYCMIRW
pIC50 (HLA-A*24:02 [1]; [4]): ≤ 3.98

TSGKYFSTF
pKd (HLA-B*15:01; [9]): 7.07

TTIRYQATG
pIC50 (HLA-A*24:02 [1]; [7]): 4.23

TTLTASLVML
pKd (HLA-A*01:01; [10]): 5.98

VHSQGREAA
pIC50 (HLA-A*02:01; [7]): 4.39 | pIC50 (HLA-A*24:02 [1]; [7]): 5.72

VKVLRPTPKG
pKd (HLA-A*30:01; [5]): 5.03

VKVLRPTPRG
pKd (HLA-A*30:01; [10]): 5.22

VLLDYGLHG
pKd (HLA-B*15:01; [4]): ≤ 4.56

VMKRYSAPSE
pKd (HLA-A*30:01; [10]): 5.20

VPLQWIASA
pKd (HLA-B*07:02; source organism: Dengue virus 3 Sri Lanka/1266/2000): 6.75

VRSETKQKF
pIC50 (HLA-A*24:02 [1]; source organism: Vaccinia virus): 5.74

VTAKWLWGFL
pKd (HLA-A*01:01; [3]): 4.75

WQQVPFCSH
pKd (HLA-B*15:01; [3]): 6.99

YGANYFLQI
pKd (HLA-B*15:01; [4]): 5.75

YKLFLESGA
pIC50 (HLA-A*02:01; [7]): ≤ 3.68

YLFIRKNVI
pKd (HLA-B*08:01; [9]): 9.15

YQVKTETTIL
pKd (HLA-B*15:01; [5]): 7.37

YVHKAQGTG
pIC50 (HLA-A*02:01; [6]): ≤ 3.63
